The results in this text go back to article PMC6827484 (Methods in molecular biology (Clifton, N.J.), 2019).

For this assay, the target named is target antigen of trastuzumab on the target cells (UniProt P04626). Kind of assay: flow cytometry on cells.

B1: meditope-enabled trastuzumab (antibody, V domains shown)
VH: not shown
VL: DIQMTQSPILLSASVGDRVTITCRASQDVNTAVAWYQQRTNGSPRLLIYSASFLYSGVPSRFSGSRSGTDFTLTISSLQPEDIADYYCQQHYTTPPTFGAGTKVEIK
Consider B1, for which the binding result is “binds”.
